Source: PMC4579573
pKd: −log10 of the molar value.

Assays:
[1] = target: CfBRCC36–KIAA0157–BRCC45 triple complex (C. floridanus) (UniProt E2AXC7); assay: SEC-MALS; complexes and subcomplexes purified from insect cells; size exclusion chromatography coupled to multi-angle light scattering (Figures S1B-E and S8E-G)
[2] = target: CfBRCC36(Ala205Asp)–KIAA0157ΔC heterodimer (C. floridanus)
[3] = target: K63-linked diUb covalently coupled to AlexaFluor-488 (UniProt P0CG48); assay: fluorescence polarisation; complex titrated against 10 nM AlexaFluor-488 K63-linked diUb tracer
[4] = target: H. Sapiens ARISC (BRCC36–Abraxas–BRCC45–MERIT40) complex (H. sapiens) (UniProt P46736); assay: SEC-MALS; complexes and subcomplexes purified from insect cells; size exclusion chromatography coupled to multi-angle light scattering (Figures S1B-E and S8E-G)
[5] = as above
[6] = target: unlabeled K63 linked diUb (UniProt P0CG48)
[7] = target: CfBRCC36–KIAA0157ΔC heterodimer (C. floridanus); assay: SEC-MALS; complexes and subcomplexes purified from insect cells; size exclusion chromatography coupled to multi-angle light scattering (Figures S1B-E and S8E-G)
[8] = target: CfBRCC36(Ala205Asp + Ile212Asp)–KIAA0157ΔC heterodimer (C. floridanus); assay: as above
[9] = target: Cf BRCC36–KIAA0157 binary complex (C. floridanus) (UniProt E2AXC7); assay: as above
[10] = target: CfBRCC36(Ile212Asp)–KIAA0157ΔC heterodimer (C. floridanus)

**Q.** For “CfBRCC36–KIAA0157–BRCC45 triple complex (from UniProt E2AXC7 1-253)”, which stoichiometry N [1] is on record?
**A.** Its stoichiometry N is 2.

**Q.** With “CfBRCC36(Ala205Asp)–KIAA0157ΔC heterodimer (complex)” as the substance, how does the cleavage of a K63-linked diUb fluorigenic substrate in vitro, at near saturating substrate concentrations (>10 μM diUb) (fold less active than WT) [2] read?
**A.** Its cleavage of a K63-linked diUb fluorigenic substrate in vitro, at near saturating substrate concentrations (>10 μM diUb) (fold less active than WT) is 10.

**Q.** With “BRCC36 (E30A+A205D+I212D)-KIAA0157ΔC complex (from UniProt E2AXC7 1-253)” as the substance, how does the pKd [3] read?
**A.** The pKd was 5.66.

**Q.** With “H. Sapiens ARISC (BRCC36–Abraxas–BRCC45–MERIT40) complex (from UniProt P46736 1-316; Q6UWZ7 1-409; Q9NXR7 1-383; Q9NWV8 1-329)” as the substance, how does the stoichiometry N [4] read?
**A.** Its stoichiometry N is 2.

**Q.** With “CfBRCC36(Ala205Asp + Ile212Asp)–KIAA0157ΔC heterodimer” as the substance, how does the “percent eluting as a monomer of heterodimers” value [5] read?
**A.** The value was 85% major peak.

**Q.** Which Km, Michaelis-Menten kinetic analysis for cleavage of K63 diUb (Figure 6B) [6] does the source give for “CfBRCC36–KIAA0157ΔC heterodimer (complex)” here?
**A.** The Km, Michaelis-Menten kinetic analysis for cleavage of K63 diUb (Figure 6B) was 4.2 µM.

**Q.** What about the stoichiometry N [7] of the same substance?
**A.** The stoichiometry N was 2.

**Q.** Which percent eluting as super dimers [8] does the source give for “CfBRCC36(Ala205Asp + Ile212Asp)–KIAA0157ΔC heterodimer (complex)” here?
**A.** Its percent eluting as super dimers is 15%.

**Q.** For “Cf BRCC36–KIAA0157 binary complex (from UniProt E2AXC7 1-253)”, which stoichiometry N [9] is on record?
**A.** Its stoichiometry N is 2.

**Q.** With “BRCC36(E30A)-KIAA0157ΔC complex (from UniProt E2AXC7 1-253)” as the substance, how does the pKd [3] read?
**A.** Its pKd is 5.62.

**Q.** With “CfBRCC36(Ile212Asp)–KIAA0157ΔC heterodimer (complex)” as the substance, how does the cleavage of a K63-linked diUb fluorigenic substrate in vitro, at near saturating substrate concentrations (>10 μM diUb) (fold less active than WT) [10] read?
**A.** The cleavage of a K63-linked diUb fluorigenic substrate in vitro, at near saturating substrate concentrations (>10 μM diUb) (fold less active than WT) was 10.

**Q.** With “CfBRCC36(Ala205Asp)–KIAA0157ΔC heterodimer” as the substance, how does the “percent eluting as monomers of heterodimers” value [5] read?
**A.** The value was 70% and 36% of proteins, respectively, eluting as monomers of heterodimers.

**Q.** For “CfBRCC36(Ile212Asp)–KIAA0157ΔC heterodimer”, which “percent eluting as monomers of heterodimers” value [5] is on record?
**A.** Its value is 70% and 36% of proteins, respectively, eluting as monomers of heterodimers.
